Assay results published in the supplement of paper PMC10724198.
± gives the standard deviation of the averaged measurements.

test system: Saccharomyces cerevisiae; experiment: protein stability index of tFT-peptide fusion (C-terminal peptide) (PSI (0-1 scale)); higher = more stable (slower turnover); conditions: genetic background: wild type; temperature: 30 C
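Note: PSI is a weighted mean of sequencing reads over stability bins, variants kept only with over 10 reads, mCherry proximal and sfGFP distal, peptide attached via GGGS linker.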

Point of comparison: PADAPPPTRPEA, protein stability index 0.724 ± 0.032. Against it:
- VERRNAVGTDEK — lower, 0.611 ± 0.063
- KKKKIKKKTKKE — within error, 0.667 ± 0.027
- GVIKLTQEKAST — within error, 0.679 ± 0.017
- NRYKINHRIKCK — lower, 0.576 ± 0.032
- FTVRSPSCISAE — lower, 0.631 ± 0.017
- AKVRGGKGLRLV — lower, 0.6687 ± 0.003
- GLGEGLVCFLLG — within error, 0.73 ± 0.056
- KSPYNTPLSLVL — within error, 0.672 ± 0.024
- FVIWGCGVRSWC — lower, 0.618 ± 0.033
- QKIIEDNQNTGR — lower, 0.663 ± 0.016
- MRCQFDGAVGVC — within error, 0.663 ± 0.074
- ITGLRNSRFNRP — lower, 0.652 ± 0.0068
- GLASFVMQVAPF — within error, 0.705 ± 0.008
- PPCPPPPPVLPT — lower, 0.66722 ± 0.00014
- PHTHPPASLPPV — lower, 0.638 ± 0.033
- HPYVTSHGRPLR — within error, 0.677 ± 0.024
- PAPCPLFVPSPT — lower, 0.655 ± 0.012
- LHPRPPLFLHPL — within error, 0.692 ± 0.015
- LSLPSLLLRLSL — lower, 0.644 ± 0.023
- SPHPRKTTSHPR — lower, 0.6642 ± 0.0015
- PDVFLLHASPPG — within error, 0.66 ± 0.098
- SEVRGRERLAKC — within error, 0.662 ± 0.041
- TSPLSPPLPSFR — within error, 0.696 ± 0.021
- SPPPPRPRPCAI — within error, 0.753 ± 0.12
- LLCFGGRGPLAD — within error, 0.713 ± 0.028
- CKIGMFIRWIGG — lower, 0.571 ± 0.04
- IIQNNNQLKKRR — within error, 0.671 ± 0.049
- RPPPHPPFPPRF — within error, 0.714 ± 0.052
- LPPLAYALLPPL — lower, 0.571 ± 0.028
- KAGVGAFLEPRS — within error, 0.713 ± 0.064
- VSSVEHCLGHCR — within error, 0.738 ± 0.11
- TSCPPAHLPPPP — within error, 0.659 ± 0.046
- LPPTPPLPRSLP — within error, 0.716 ± 0.066
- SNPKLPYSGTLE — lower, 0.6685 ± 0.0015
- RWVWRNRSGGGE — lower, 0.636 ± 0.043
- IERKNYPQNRRQ — lower, 0.62 ± 0.046
- PPNPPPNPPSRY — within error, 0.738 ± 0.047
- VATVSLSVRNTS — within error, 0.66 ± 0.033
- TPSPHTPLPLAP — within error, 0.708 ± 0.09
- PPLPAPPPPFPP — lower, 0.59 ± 0.022
- SIYNKNKKIKQK — within error, 0.688 ± 0.07
- FYVCVIQNMYML — lower, 0.579 ± 0.043
- CVWHELTYGSLY — within error, 0.66 ± 0.062
- VKVYHVPSTFSV — within error, 0.681 ± 0.029
- KKKQKTIYRQKE — within error, 0.64 ± 0.089
- QSPTFLTPLALA — within error, 0.653 ± 0.039
- GVQEGGGVARGG — lower, 0.639 ± 0.018
- LCGVRGESGLEG — within error, 0.685 ± 0.031
- HPPKPHHPSNPC — within error, 0.691 ± 0.034
- PAVARPLGPPPY — within error, 0.714 ± 0.045
- WGREGRVPGWAG — within error, 0.671 ± 0.11
- GFFRGMLEGINA — within error, 0.726 ± 0.073
- PFPLPPPPSPTP — within error, 0.699 ± 0.03
- IFNYGGANFIYC — within error, 0.714 ± 0.028
- RLCPNSITLPSL — within error, 0.7156 ± 0.0018
- LLLLDPPLPPPP — within error, 0.684 ± 0.015
- TAVPRARRRVVR — within error, 0.712 ± 0.018
- YTPEVSVFFFRT — lower, 0.6233 ± 0.0014
- VGVGPVGDVWLI — within error, 0.6979 ± 0.0027
- PACSFPPPPFSA — within error, 0.703 ± 0.1
- YSTFIPYSPCTA — lower, 0.644 ± 0.013
- EKDRAVGAAKAA — within error, 0.631 ± 0.12
- TSPLSPSGPQSS — within error, 0.86 ± 0.14
- RFLEKNKKVIDK — within error, 0.742 ± 0.037
- GARPRSGVRGGT — within error, 0.723 ± 0.022
- FGSCVIFAAHWF — lower, 0.6467 ± 0.0025
- LLSGRDAACRGG — lower, 0.663 ± 0.027
- LKSGAWFFRIGY — lower, 0.66 ± 0.018
- FLSEPAKRILYL — lower, 0.667 ± 0.018
- APLPPLYPPSPP — within error, 0.648 ± 0.065
- VARVGFRETLSF — within error, 0.703 ± 0.05
- KKKKKKKIRKKI — within error, 0.682 ± 0.029
- ITNEQEMKRYDV — lower, 0.667 ± 0.013
- AGHTTVTNPLPQ — within error, 0.738 ± 0.079
- RLSDFFSPPLLP — within error, 0.717 ± 0.047
- SRLLLPIGISRV — within error, 0.543 ± 0.16
- ASPLFFHPSAPH — within error, 0.6891 ± 0.0046
- QEIRKEILLIKS — within error, 0.6 ± 0.098
- VVFFSSPHFVRA — lower, 0.609 ± 0.05
- GWNCTAFRTLHI — within error, 0.662 ± 0.061
- CGLFFSCVGVSG — lower, 0.6411 ± 0.005
- HGVVGVFGLVSG — lower, 0.664 ± 0.0075
- KRKAQEVNSKKK — within error, 0.703 ± 0.011
- RHAVNAQPVARP — lower, 0.647 ± 0.036
- WRRGMMGGLAIW — within error, 0.698 ± 0.012
- RMGWSGKVGVVG — within error, 0.78 ± 0.11
- QSHALSLRKGMP — within error, 0.681 ± 0.052
- GSGGRGTVCSEG — lower, 0.652 ± 0.015
- FHFFSFLSSVGF — lower, 0.6434 ± 0.0062
- PSKMPNSTLRAE — within error, 0.682 ± 0.065
- LPGKVGNAPFDQ — within error, 0.6913 ± 0.0062
- NFAIYPTLYKYD — lower, 0.667 ± 0.016
- LDVASTPPLSTL — within error, 0.704 ± 0.023
- QKHAAFLKRSRE — within error, 0.68 ± 0.024
- QKKSGKNGIRPK — within error, 0.701 ± 0.065
- GRRQGKRRIGRK — lower, 0.652 ± 0.036
- LLVVSIGSCFFG — lower, 0.572 ± 0.065
- DLIRIRHACGFL — within error, 0.663 ± 0.048
- EEGGQGITIEES — within error, 0.686 ± 0.12
- RLGKRKKPYTQG — within error, 0.756 ± 0.077
- HGCVWCSGLFGV — within error, 0.739 ± 0.029
- VLCKDGHRGFGC — lower, 0.589 ± 0.057
- RHRPLPETDLAS — within error, 0.708 ± 0.016
- VSVFNFPSLFVG — within error, 0.66 ± 0.063
- FHPRLGVRLGIT — lower, 0.632 ± 0.046
- DVLSPRPSPLPS — lower, 0.665 ± 0.0093
- GGCRSVGWGREG — within error, 0.676 ± 0.029
- LRLGRDLMGEGV — within error, 0.661 ± 0.072
- LYHCFRCYYMPW — lower, 0.637 ± 0.033
- IRRPSVTAIRPS — within error, 0.667 ± 0.08
- TNVRMGCELEEK — within error, 0.716 ± 0.14
- CKFPSLCVLSSV — within error, 0.654 ± 0.07
- VAGFPSPVVLGW — within error, 0.607 ± 0.085
- FVPMDFILKFSR — within error, 0.699 ± 0.033
- KQNKIIKKRKKK — within error, 0.659 ± 0.067
- KKTKKKQQGKIQ — within error, 0.702 ± 0.017
- SKRCNNNRNTSN — within error, 0.69 ± 0.044
- PTGYPGPRMMVW — within error, 0.771 ± 0.3
- RDGGVHVFATLM — lower, 0.626 ± 0.018
- RAIPTWPIGDRR — lower, 0.655 ± 0.029
- GRSGGGTGAPSR — within error, 0.637 ± 0.061
- GLMAIKVNLNHS — lower, 0.619 ± 0.032
- KKKKKVKITGKK — within error, 0.766 ± 0.018
- LIMLNNIENSSI — lower, 0.678 ± 0.01
- NISSFKHVLAYK — lower, 0.624 ± 0.06
- LARFRAEWGGVV — within error, 0.691 ± 0.019
- LFLLSLLDWGFR — within error, 0.661 ± 0.072
- LLPLPSPLPACP — within error, 0.709 ± 0.02
- MCNPAYVTSGVI — within error, 0.6987 ± 0.0054
- ERGGWGVGSEVG — within error, 0.719 ± 0.03
- PPPPTPPPRTSP — within error, 0.739 ± 0.063
- RPFLSVLPLFFP — within error, 0.734 ± 0.0017
- WRCSAITASEYL — within error, 0.686 ± 0.032
- KRLTSKVKTITG — within error, 0.694 ± 0.031
- ALRGWIRRRFPV — within error, 0.671 ± 0.03
- PPLPRPSLPPLP — within error, 0.676 ± 0.054
- RLFGFGEQKIEE — within error, 0.695 ± 0.021
- GCRSYRVFSGMI — within error, 0.727 ± 0.12
- HPRWTPPTQSAS — within error, 0.716 ± 0.049
- SLLDPLLPLLLF — lower, 0.634 ± 0.017
- PLSYRRFTRLPR — within error, 0.68 ± 0.066
- LPPPPIAPPLTP — within error, 0.689 ± 0.063
- VWTITGFIPVVF — lower, 0.517 ± 0.032
- LQSLRSEVIHSL — within error, 0.651 ± 0.095
- SPPFLLPFFPTP — within error, 0.68 ± 0.043
- KGDWGGRGCGRH — within error, 0.693 ± 0.021
- GVSLFFITQFET — within error, 0.712 ± 0.012
- SPPPPPPPHSPD — within error, 0.654 ± 0.071
- ETEKHGIRRRQG — lower, 0.644 ± 0.027
- LLATCGAIHTFC — lower, 0.637 ± 0.01
- HGISLVWEVGEG — lower, 0.6439 ± 0.0035
- CVLGVGVPAGGG — lower, 0.634 ± 0.032
- LHGLSGRLLFDV — within error, 0.574 ± 0.2
- PSPPYSRPPLPP — within error, 0.698 ± 0.049
- SARQCWFSLSDD — lower, 0.639 ± 0.043
- LAEGFSLIRSHR — within error, 0.685 ± 0.019
- KTPAAVPWTRER — within error, 0.693 ± 0.013
- GNLVSFCTKKGA — within error, 0.722 ± 0.014
- PLPPPSPSTPPP — within error, 0.796 ± 0.065
- GIGLVIEDKLLL — within error, 0.683 ± 0.042
- ISPPAPTNLPTT — within error, 0.696 ± 0.043
- CLWGQWAVGCMG — lower, 0.6169 ± 0.0019
- LVSEGKRLDVVF — lower, 0.581 ± 0.076
- FPLLCAAPLLSS — lower, 0.594 ± 0.0012
- SLSVPYPPGLLP — within error, 0.7119 ± 0.0022
- VEVCLLRRWFGL — within error, 0.667 ± 0.055
- QPPSCTSRPPYR — within error, 0.718 ± 0.096
- VGACLEVWDGVR — within error, 0.686 ± 0.024
- EKVASLVTIFDM — within error, 0.695 ± 0.024
- TTPPPLPSDPLR — lower, 0.622 ± 0.026
- KKRILNRKKEER — within error, 0.705 ± 0.052
- TGSLSSTCPPAT — within error, 0.717 ± 0.075
- PGSLRGATRPNQ — within error, 0.739 ± 0.17
- FVCRRDIMSGIF — lower, 0.6565 ± 0.0052
- GGFDDIYVPIFV — within error, 0.694 ± 0.012
- EDYERETRKICK — within error, 0.717 ± 0.038
- SAQPELPNIAPA — lower, 0.636 ± 0.049
- GRAPPGHSLPVR — within error, 0.7187 ± 0.0071
- HLPLPPRLLTHV — within error, 0.654 ± 0.042
- NRGTRQIIIKKK — lower, 0.653 ± 0.038
- LYPRLAPPTPPS — within error, 0.686 ± 0.026
- NDGLKVLKETSP — within error, 0.675 ± 0.027
- SCIIWPAKGCPF — within error, 0.687 ± 0.054
- RVGGPGNRGGVV — within error, 0.696 ± 0.058
- RPSHPPHLPPPV — lower, 0.6753 ± 0.0044
- WQDTASNSNTTI — within error, 0.719 ± 0.024
- KKKKKKKKHEQK — within error, 0.678 ± 0.09
- IPPLTKRPAPGG — within error, 0.684 ± 0.099
- DKSEINKPTKGK — within error, 0.675 ± 0.021
- PLSNAPRPSQVA — within error, 0.736 ± 0.056
- DGSMRKWGQGVG — lower, 0.575 ± 0.067
- VCGLRFLLFGCG — lower, 0.63 ± 0.021
- VVFEVFLTHMSM — lower, 0.624 ± 0.065
- NNEETIKQKNLQ — within error, 0.702 ± 0.025
- VGAPGGVETTKA — within error, 0.685 ± 0.015
- GGFGEFTWAEAA — higher, 0.768 ± 0.0087
- GVVGCSCLGCGF — within error, 0.717 ± 0.054
- PKTKKEKQKKKV — within error, 0.704 ± 0.034
- VGGGEVRAWGLR — lower, 0.661 ± 0.008
- APRHSSLHPAPS — within error, 0.6986 ± 0.0029
- GEVVGRCGAWVC — lower, 0.611 ± 0.033
